# Reference: US20200345898
# B1: bone morphogenetic protein-1 (BMP1), recombinant human, in supernatant of doxycycline-induced HEK293 (Flp-In T-REx 293) cells (protein)
# chain: AATSRPERVWPDGVIPFVIGGNFTGSQRAVFRQAMRHWEKHTCVTFLERTDEDSYIVFTYRPCGCCSYVGRRGGGPQAISIGKNCDKFGIVVHELGHVVGFWHEHTRPDRDRHVSIVRENIQPGQEYNFLKMEPQEVESLGETYDFDSIMHYARNTFSRGIFLDTIVPKYEVNGVKPPIGQRTRLSKGDIAQARKLYKCPACGETLQDSTGNFSSPEYPNGYSAHMHCVWRISVTPGEKIILNFTSLDLYRSRLCWYDYVEVRDGFWRKAPLRGRFCGSKLPEPIVSTDSRLWVEFRSSSNWVGKGFFAVYEAICGGDVKKDYGHIQSPNYPDDYRPSKVCIWRIQVSEGFHVGLTFQSFEIERHDSCAYDYLEVRDGHSESSTLIGRYCGYEKPDDIKSTSSRLWLKFVSDGSINKAGFAVNFFKEVDECSRPNRGGCEQRCLNTLGSYKCSCDPGYELAPDKRRCEAACGGFLTKLNGSITSPGWPKEYPPNKNCIWQLVAPTQYRISLQFDFFETEGNDVCKYDFVEVRSGLTADSKLHGKFCGSEKPEVITSQYNNMRVEFKSDNTVSKKGFKAHFFSEKRPALQPPRGRPHQLKFRVQKRNRTPQ
# Target: T1, lysyl oxidase (LOX), recombinant human, in supernatant of doxycycline-induced HEK293 (Flp-In T-REx 293) cells
# T1 chain: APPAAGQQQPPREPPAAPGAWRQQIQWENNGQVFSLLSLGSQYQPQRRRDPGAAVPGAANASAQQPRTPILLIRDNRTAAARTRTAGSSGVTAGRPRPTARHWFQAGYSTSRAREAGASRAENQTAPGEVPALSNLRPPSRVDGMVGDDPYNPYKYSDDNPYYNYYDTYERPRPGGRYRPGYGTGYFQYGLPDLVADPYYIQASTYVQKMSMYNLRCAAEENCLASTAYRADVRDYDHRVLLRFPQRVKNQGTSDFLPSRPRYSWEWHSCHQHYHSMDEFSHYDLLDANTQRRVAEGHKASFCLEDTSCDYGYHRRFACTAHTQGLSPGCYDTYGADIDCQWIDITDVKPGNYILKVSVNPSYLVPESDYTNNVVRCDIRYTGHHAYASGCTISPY
protein,measurement,value
B1,"LOX enzymatic activity, fluorometric assay","the induction of the expression of LOX promoted a strong increase in LOX enzymatic activity, that was further augmented upon incubation with BMP1 supernatants in a time-dependent manner"
same,"LOX immunoreactivity by western blotting in supernatants of fibroblast cultures, one day",the combination of recombinant LOX and BMP1 resulted in complete proteolysis of the pro-LOX
